What was measured:
[1] = biological target: epidermal growth factor receptor (EGFR) (human), P00533; test: cell-based or functional assay
[2] = biological target: epidermal growth factor receptor (EGFR) (human), P00533; test: flow cytometry, equilibrium binding on EGFR-expressing A431 cells (apparent KD)

B1: Ranpirnase-DEN-scFv (protein)
chain: QDWLTFQKKHITNTRDVDCDNIMSTNLFHCKDKNTFIYSRPEPVKAICKGIIASKNVLTTSEFYLSDCNVTSRPCKYKLKKSTNKFCVTCENQAPVHFVGVGSCMVDRGWGNGCGLFGKGGIVEVQLVESGGGLVQPGGSLRLSCAASGFSLTNYGVHWVRQAPGKGLEWLGVIWSGGNTDYNTPFTSRFTISRDNSKNTLYLQMNSLRAEDTAVYYCARALTYYDYEFAYWGQGTTVTVSSGGGGSGGGGSGGGGSDIQLTQSPSFLSASVGDRVTITCRASQSIGTNIHWYQQKPGKAPKLLIKYASESISGVPSRFSGSGSGTEFTLTISSLQPEDFATYYCQQNNNWPTTFGAGTKLEIKR
modifications: not checked
B1 showed an IC50 (nM), cell viability, A431 [1] of 38 nM, an IC50 (nM), cell viability, HNO97 [1] of 411 nM and an IC50 (nM), cell viability, HNO211 [1] of 18 nM. The IC50 (nM), cell viability, HNO410 [1] was 308 nM, the fold increase in potency compared to Ranpirnase-GS-scFv, HNO211 cells [1] was 79 fold and the Kd [2] was 11.2 nM.

Reference: patent publication US20170260274A1
